Assay results published in IntAct's records for PubMed 21620138.

Target: hif1a_human HIF1A (UniProt Q16665)
Sequence (Q16665 whole entry, looked up): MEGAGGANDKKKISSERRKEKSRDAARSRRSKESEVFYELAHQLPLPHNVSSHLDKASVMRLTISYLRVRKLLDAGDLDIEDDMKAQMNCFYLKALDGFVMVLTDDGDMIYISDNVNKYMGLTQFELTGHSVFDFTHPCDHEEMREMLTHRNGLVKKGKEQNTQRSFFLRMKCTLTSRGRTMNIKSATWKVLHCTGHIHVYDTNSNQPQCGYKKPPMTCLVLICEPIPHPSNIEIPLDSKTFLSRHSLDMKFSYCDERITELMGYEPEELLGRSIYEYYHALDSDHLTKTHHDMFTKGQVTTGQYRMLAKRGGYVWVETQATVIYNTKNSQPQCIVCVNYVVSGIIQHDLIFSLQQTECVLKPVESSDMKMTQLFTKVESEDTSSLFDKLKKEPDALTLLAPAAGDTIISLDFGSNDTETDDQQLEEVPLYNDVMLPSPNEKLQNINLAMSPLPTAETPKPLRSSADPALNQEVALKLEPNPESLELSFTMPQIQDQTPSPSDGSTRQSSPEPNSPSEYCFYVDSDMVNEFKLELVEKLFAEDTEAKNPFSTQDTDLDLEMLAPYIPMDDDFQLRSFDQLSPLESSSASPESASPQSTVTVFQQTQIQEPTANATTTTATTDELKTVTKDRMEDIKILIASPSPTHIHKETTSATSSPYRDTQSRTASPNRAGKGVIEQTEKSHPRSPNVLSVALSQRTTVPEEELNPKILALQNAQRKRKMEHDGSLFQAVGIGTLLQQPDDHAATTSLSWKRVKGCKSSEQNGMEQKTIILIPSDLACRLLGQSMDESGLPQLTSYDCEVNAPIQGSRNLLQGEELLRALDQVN

Sequence of Pyruvate kinase PKM (Homo sapiens), P14618-1 P403A;P408A (P14618 whole entry P403A/P408A): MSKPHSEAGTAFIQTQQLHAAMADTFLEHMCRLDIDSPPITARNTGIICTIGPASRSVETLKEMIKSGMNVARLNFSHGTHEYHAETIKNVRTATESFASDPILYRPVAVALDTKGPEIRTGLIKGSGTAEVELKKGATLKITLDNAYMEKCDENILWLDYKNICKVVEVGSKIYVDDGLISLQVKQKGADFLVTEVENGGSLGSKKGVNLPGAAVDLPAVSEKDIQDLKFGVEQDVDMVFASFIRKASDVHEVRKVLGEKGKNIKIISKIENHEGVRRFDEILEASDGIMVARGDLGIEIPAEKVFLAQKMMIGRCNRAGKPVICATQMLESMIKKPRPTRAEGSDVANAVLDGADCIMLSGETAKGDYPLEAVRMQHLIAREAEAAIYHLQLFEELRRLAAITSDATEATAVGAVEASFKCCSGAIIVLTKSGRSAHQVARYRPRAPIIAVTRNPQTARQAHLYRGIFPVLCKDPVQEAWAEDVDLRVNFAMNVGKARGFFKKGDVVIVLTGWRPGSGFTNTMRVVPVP

## Pyruvate kinase PKM (Homo sapiens), P14618-1 P403A;P408A
  effect of a mutation on the interaction: decreasing interaction strength
